These results are taken from article PMC3845908 (Journal of the American Chemical Society, 2012).

Series [1] concerns the molecule itself. Put plainly: pulsed double electron-electron resonance.
Series [2] concerns the molecule itself. Put plainly: pulsed double electron-electron resonance. This is another data set of the same source.

Read-outs that look alike come from different tables or passages of the source.

B1: Streptomyces lividans KcsA R64C, MTSL spin-labelled (natural protein, UniProt P0A334 1-160, looked up)
chain: MPPMLSGLLARLVKLLLGRHGSALHWRAAGAATVLLVIVLLAGSYLAVLAERGAPGAQLITYPCALWWSVETATTVGYGDLYPVTLWGRLVAVVVMVAGITSFGLVTAALATWFVGREQERRGHFVRHSEKAAEEAYTRTTRALHERFDRLERMLDDNRR
modifications: MTSL spin label on the cysteine at 64
With B1, in series [1], the binding result is reported as “binds”.

B2: Streptomyces lividans KcsA F114C full length, MTSL spin-labelled (natural protein, UniProt P0A334 1-160, looked up)
chain: MPPMLSGLLARLVKLLLGRHGSALHWRAAGAATVLLVIVLLAGSYLAVLAERGAPGAQLITYPRALWWSVETATTVGYGDLYPVTLWGRLVAVVVMVAGITSFGLVTAALATWCVGREQERRGHFVRHSEKAAEEAYTRTTRALHERFDRLERMLDDNRR
modifications: MTSL spin label on the cysteine at 114
On to B2, for which, in series [2], the binding result is “binds”.
